Test results as given in patent publication US20150344570A1 (published 2015).

T1: FcγRIIb, extracellular domain with C-terminal His tag (human, UniProt P31994 43-217)
T1 construct: extracellular domain; also called FcgRIIb; 2b; not shown: His tag attached to the C terminus
T1 sequence (looked up): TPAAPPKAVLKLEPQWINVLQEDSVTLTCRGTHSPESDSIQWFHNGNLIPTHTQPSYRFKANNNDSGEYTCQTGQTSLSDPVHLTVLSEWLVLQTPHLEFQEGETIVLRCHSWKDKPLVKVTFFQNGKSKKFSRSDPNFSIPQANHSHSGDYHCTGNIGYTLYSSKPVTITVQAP

T2: FcγRIIa R (FcγRIIa allotype with Arg at position 131), extracellular domain with C-terminal His tag (human, UniProt P12318 34-217)
T2 chain: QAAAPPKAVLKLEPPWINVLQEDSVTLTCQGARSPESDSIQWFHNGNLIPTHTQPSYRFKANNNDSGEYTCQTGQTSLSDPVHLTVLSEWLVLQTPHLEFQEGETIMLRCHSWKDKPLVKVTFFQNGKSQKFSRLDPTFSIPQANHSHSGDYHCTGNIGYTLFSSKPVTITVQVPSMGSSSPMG


Experiments:
[1] = target: T1, FcγRIIb, extracellular domain with …; test: SPR (Biacore T100), antibody captured on antigen peptide chip, FcγR as analyte; binding amount relative to control heterodimerized antibody
Protocol: (§1) The heterodimerized antibodies He Abs in which one of the H chains was introduced with an alteration were assayed for their binding activities to each activating FcγR and inhibitory FcγR according to the method described in Example 4. […] The activating FcγRs in FIGS. 26, 27, 28, and 29 are FcγRIa, FcγRIIa (R), FcγRIIa (H), and FcγRIIIa, respectively.
(§2) Analysis of interaction between objective antibody and the FcγR was carried out using Biacore T100 (GE Healthcare). HBS-EP+ (GE Healthcare) was used as the running buffer, and the measurement temperature was set to 25° C. Chips produced by immobilizing the antigen peptide by the amine coupling method to a Series S Sencor Chip CM5 (GE Healthcare), or alternatively, chips produced by allowing preliminarily biotinylated antigen peptides to interact with and immobilize onto a Series S Sensor Chip SA (certified) (GE Healthcare) were used. Antibodies of interest were captured onto an antigen peptide-immobilized chip, and allowed to interact to each FcγR diluted with running buffer. To regenerate and repeatedly use the chip, the antibodies captured on the chip were washed off by reacting 10 mM glycine-HCl, pH 1.5.

[2] = target: T2, FcγRIIa R (FcγRIIa allotype with Arg at …); test: as above
Protocol: as §1, §2

[3] = target: T2, FcγRIIa R (FcγRIIa allotype with Arg at …); test: SPR (Biacore T100); ratio of He/Con for FcγRIIa R to He/Con for FcγRIIb of the same antibody

Row | He/Con_2b (IIb binding) [1] | He/Con_2aR (IIaR binding) [2] | He_2aR/2b (IIaR/IIb) [3] | Binder
1 | 149 relative binding activity, GpH7-A5/GpH7-B3/GpL16-k0 = 100 | 117 relative binding activity, GpH7-A5/GpH7-B3/GpL16-k0 = 100 | 0.78 | GpH7-A5/GpH7-B3 variant L328_13S/GpL16-k0 (heterodimerized antibody He Ab, L328S in one H chain) (antibody, human IgG1, kappa, Anti-glypican-3 human IgG1-type antibody; the alteration is in only one of the two H chains (the GpH7-B3 chain)) heavy 1: not shown heavy 2: not shown light: DIVMTQSPLSLPVTPGEPASISCQASESLVHSNRNTYLHWYLQKPGQSPQLLIYKVSNRFSGVPDRFSGSGSGTDFTLKISRVEAEDVGVYYCSQNTHVPPTFGQGTKVEIERTVAAPSVFIFPPSDEQLKSGTASVVCLLNNFYPREAKVQWKVDNALQSGNSQESVTEQDSKDSTYSLSSTLTLSKADYEKHKVYACEVTHQGLSSPVTKSFNRGEC
2 | 70.9 relative binding activity, GpH7-A5/GpH7-B3/GpL16-k0 = 100 | 43.1 relative binding activity, GpH7-A5/GpH7-B3/GpL16-k0 = 100 | 0.61 | GpH7-A5/GpH7-B3 variant I332_11K/GpL16-k0 (heterodimerized antibody He Ab, I332K in one H chain) (antibody, human IgG1, kappa, Anti-glypican-3 human IgG1-type antibody; the alteration is in only one of the two H chains (the GpH7-B3 chain)) heavy 1: not shown heavy 2: not shown light: DIVMTQSPLSLPVTPGEPASISCQASESLVHSNRNTYLHWYLQKPGQSPQLLIYKVSNRFSGVPDRFSGSGSGTDFTLKISRVEAEDVGVYYCSQNTHVPPTFGQGTKVEIERTVAAPSVFIFPPSDEQLKSGTASVVCLLNNFYPREAKVQWKVDNALQSGNSQESVTEQDSKDSTYSLSSTLTLSKADYEKHKVYACEVTHQGLSSPVTKSFNRGEC
